Data on 30 molecules can be found in publication PMC6555819, “Comprehensive study of nuclear receptor DNA binding provides a revised framework for understanding receptor specificity”.

The chains are these.
B1: NRC3_wobSeed15_DR0_G23A_o1 (dsDNA)
DNA 1: GCCGAACTAGGTCAAGGACAGTAAATCTCCGCACGCGCGATTGACAGCGTAGAATGAAGG
DNA 2: CCTTCATTCTACGCTGTCAATCGCGCGTGCGGAGATTTACTGTCCTTGACCTAGTTCGGC
B2: NRC3_wobSeed15_DR0_A18C_o1 (dsDNA)
DNA 1: GCCGAACTAGGTCAAGGCCAGTGAATCTCCGCACGCGCGATTGACAGCGTAGAATGAAGG
DNA 2: CCTTCATTCTACGCTGTCAATCGCGCGTGCGGAGATTCACTGGCCTTGACCTAGTTCGGC
B3: NRC3_wobSeed87_DR3_A23C_o1 (dsDNA)
DNA 1: GCCGAACTAGGTCATCCAGGACCGTGAATACATTGAGCGATTGACAGCGTAGAATGAAGG
DNA 2: CCTTCATTCTACGCTGTCAATCGCTCAATGTATTCACGGTCCTGGATGACCTAGTTCGGC
B4: NRC3_wobSeed87_DR3_T15C_o1 (dsDNA)
DNA 1: GCCGAACTAGGTCACCCAGGACAGTGAATACATTGAGCGATTGACAGCGTAGAATGAAGG
DNA 2: CCTTCATTCTACGCTGTCAATCGCTCAATGTATTCACTGTCCTGGGTGACCTAGTTCGGC
B5: NRC3_wobSeed12_DR0_T19C_o1 (dsDNA)
DNA 1: GCCCGACTGGGGCAAGGTCACCATAACGCACAGCCAGCGATTGACAGCGTAGAATGAAGG
DNA 2: CCTTCATTCTACGCTGTCAATCGCTGGCTGTGCGTTATGGTGACCTTGCCCCAGTCGGGC
B6: NRC3_wobSeed16_DR0_C7A_o1 (dsDNA)
DNA 1: GCCAGCATAGGTCAGGGCCAGTATAGGAGGAACGTTGCGATTGACAGCGTAGAATGAAGG
DNA 2: CCTTCATTCTACGCTGTCAATCGCAACGTTCCTCCTATACTGGCCCTGACCTATGCTGGC
B7: NRC3_wobSeed37_DR1_A14G_o1 (dsDNA)
DNA 1: GCCGTCCAAGGTCGAAGGTCAGTGAAGAGATGACGGGCGATTGACAGCGTAGAATGAAGG
DNA 2: CCTTCATTCTACGCTGTCAATCGCCCGTCATCTCTTCACTGACCTTCGACCTTGGACGGC
B8: NRC3_wobSeed4_DR0_C7G_o1 (dsDNA)
DNA 1: GCCCTAGTGGGCCAAGGTCATTGATCAGTCAAAGCAGCGATTGACAGCGTAGAATGAAGG
DNA 2: CCTTCATTCTACGCTGTCAATCGCTGCTTTGACTGATCAATGACCTTGGCCCACTAGGGC
B9: NRC3_wobSeed82_DR3_A18C_o1 (dsDNA)
DNA 1: GCATCGAAAGGTCGACGCGGTGAGTATACACCGTTTGCGATTGACAGCGTAGAATGAAGG
DNA 2: CCTTCATTCTACGCTGTCAATCGCAAACGGTGTATACTCACCGCGTCGACCTTTCGATGC
B10: NRC3_wobSeed76_DR3_T5A_o1 (dsDNA)
DNA 1: GCCCAACTGGGCCAAAAAGGTCATTGATGCCGATAAGCGATTGACAGCGTAGAATGAAGG
DNA 2: CCTTCATTCTACGCTGTCAATCGCTTATCGGCATCAATGACCTTTTTGGCCCAGTTGGGC
B11: NRC3_wobSeed76_DR3_A17G_o1 (dsDNA)
DNA 1: GCCCTACTGGGCCAAAGAGGTCATTGATGCCGATAAGCGATTGACAGCGTAGAATGAAGG
DNA 2: CCTTCATTCTACGCTGTCAATCGCTTATCGGCATCAATGACCTCTTTGGCCCAGTAGGGC
B12: NRC3_wobSeed76_DR3_G20T_o1 (dsDNA)
DNA 1: GCCCTACTGGGCCAAAAAGTTCATTGATGCCGATAAGCGATTGACAGCGTAGAATGAAGG
DNA 2: CCTTCATTCTACGCTGTCAATCGCTTATCGGCATCAATGAACTTTTTGGCCCAGTAGGGC
B13: NRC3_wobSeed50_DR2_G11T_o1 (dsDNA)
DNA 1: GCCCTAGTTGTTCAGGAGGTCACACACCGGATATGAGCGATTGACAGCGTAGAATGAAGG
DNA 2: CCTTCATTCTACGCTGTCAATCGCTCATATCCGGTGTGTGACCTCCTGAACAACTAGGGC
B14: NRC3_wobSeed17_DR0_T21G_o1 (dsDNA)
DNA 1: GCATATGTAGGTTAGGGTCAGTCAGAAAGTAGGGAAGCGATTGACAGCGTAGAATGAAGG
DNA 2: CCTTCATTCTACGCTGTCAATCGCTTCCCTACTTTCTGACTGACCCTAACCTACATATGC
B15: NRC3_wobSeed137_DR5_A5T_o1 (dsDNA)
DNA 1: GCATTTGTAGGTTACATCCGGGTCATTCAGGCTATGGCGATTGACAGCGTAGAATGAAGG
DNA 2: CCTTCATTCTACGCTGTCAATCGCCATAGCCTGAATGACCCGGATGTAACCTACAAATGC
B16: NRC3_wobSeed44_DR1_A5T_o1 (dsDNA)
DNA 1: GCTGTATGAGGTTAAAGATCAGGGAACGTGGCGTCGGCGATTGACAGCGTAGAATGAAGG
DNA 2: CCTTCATTCTACGCTGTCAATCGCCGACGCCACGTTCCCTGATCTTTAACCTCATACAGC
B17: NRC3_wobSeed44_DR1_G17T_o1 (dsDNA)
DNA 1: GCTGAATGAGGTTAAATATCAGGGAACGTGGCGTCGGCGATTGACAGCGTAGAATGAAGG
DNA 2: CCTTCATTCTACGCTGTCAATCGCCGACGCCACGTTCCCTGATATTTAACCTCATTCAGC
B18: NRC3_wobSeed1_DR0_A20T_o1 (dsDNA)
DNA 1: GCCAAACTAGGTCAAGGTCTAAGTCGGTTTGTGCCAGCGATTGACAGCGTAGAATGAAGG
DNA 2: CCTTCATTCTACGCTGTCAATCGCTGGCACAAACCGACTTAGACCTTGACCTAGTTTGGC
B19: NRC3_wobSeed99_DR4_G16C_o1 (dsDNA)
DNA 1: GCTCTCGGAGGACACCAAAGGTCAGAGCTCGACATCGCGATTGACAGCGTAGAATGAAGG
DNA 2: CCTTCATTCTACGCTGTCAATCGCGATGTCGAGCTCTGACCTTTGGTGTCCTCCGAGAGC
B20: NRC3_wobSeed99_DR4_G16T_o1 (dsDNA)
DNA 1: GCTCTCGGAGGACACTAAAGGTCAGAGCTCGACATCGCGATTGACAGCGTAGAATGAAGG
DNA 2: CCTTCATTCTACGCTGTCAATCGCGATGTCGAGCTCTGACCTTTAGTGTCCTCCGAGAGC
B21: NRC3_wobSeed46_DR1_A25C_o1 (dsDNA)
DNA 1: GCTTACCAAGGTGAAAGGTCGTTGCTGCACGCCTTGGCGATTGACAGCGTAGAATGAAGG
DNA 2: CCTTCATTCTACGCTGTCAATCGCCAAGGCGTGCAGCAACGACCTTTCACCTTGGTAAGC
B22: NRC3_wobSeed46_DR1_A5G_o1 (dsDNA)
DNA 1: GCTTGCCAAGGTGAAAGGTCGTTGATGCACGCCTTGGCGATTGACAGCGTAGAATGAAGG
DNA 2: CCTTCATTCTACGCTGTCAATCGCCAAGGCGTGCATCAACGACCTTTCACCTTGGCAAGC
B23: NRC3_wobSeed27_DR1_A9T_o1 (dsDNA)
DNA 1: GCACTCGGTGGACAAAGGTCAGAGCTACGCCAGTGAGCGATTGACAGCGTAGAATGAAGG
DNA 2: CCTTCATTCTACGCTGTCAATCGCTCACTGGCGTAGCTCTGACCTTTGTCCACCGAGTGC
B24: NRC3_wobSeed88_DR3_G20C_o1 (dsDNA)
DNA 1: GCTAGCCTAGGTCATGCGGCCCAGTATAGTGTCGGCGCGATTGACAGCGTAGAATGAAGG
DNA 2: CCTTCATTCTACGCTGTCAATCGCGCCGACACTATACTGGGCCGCATGACCTAGGCTAGC
B25: NRC3_wobSeed112_DR4_G15C_o1 (dsDNA)
DNA 1: GCTAGCCTAGGTCACATCGGGCCAGTATACGCTATAGCGATTGACAGCGTAGAATGAAGG
DNA 2: CCTTCATTCTACGCTGTCAATCGCTATAGCGTATACTGGCCCGATGTGACCTAGGCTAGC
B26: NRC3_wobSeed110_DR4_A15T_o1 (dsDNA)
DNA 1: GCTCTGCTAGGTCATCGATGGTCAGCTAATCTGCTAGCGATTGACAGCGTAGAATGAAGG
DNA 2: CCTTCATTCTACGCTGTCAATCGCTAGCAGATTAGCTGACCATCGATGACCTAGCAGAGC
B27: NRC3_wobSeed110_DR4_C26T_o1 (dsDNA)
DNA 1: GCTCTGCTAGGTCAACGATGGTCAGTTAATCTGCTAGCGATTGACAGCGTAGAATGAAGG
DNA 2: CCTTCATTCTACGCTGTCAATCGCTAGCAGATTAACTGACCATCGTTGACCTAGCAGAGC
B28: NRC3_wobSeed28_DR1_A14T_o1 (dsDNA)
DNA 1: GCCCTACTGGGCCTAAGGTCATTGATTCCAATGCTCGCGATTGACAGCGTAGAATGAAGG
DNA 2: CCTTCATTCTACGCTGTCAATCGCGAGCATTGGAATCAATGACCTTAGGCCCAGTAGGGC
B29: NRC3_wobSeed134_DR5_T23C_o1 (dsDNA)
DNA 1: GCGCTGCTAGGTCAACTGATGGCCAGCTAAAGCTCGGCGATTGACAGCGTAGAATGAAGG
DNA 2: CCTTCATTCTACGCTGTCAATCGCCGAGCTTTAGCTGGCCATCAGTTGACCTAGCAGCGC
B30: NRC3_wobSeed39_DR1_A16G_o1 (dsDNA)
DNA 1: GCCGAACTAGGTCAAGGGACAGTGAAAGGCGACGTAGCGATTGACAGCGTAGAATGAAGG
DNA 2: CCTTCATTCTACGCTGTCAATCGCTACGTCGCCTTTCACTGTCCCTTGACCTAGTTCGGC

Sequence of FXR:RXRa (Q96RI1 whole entry, chain 1 of 2): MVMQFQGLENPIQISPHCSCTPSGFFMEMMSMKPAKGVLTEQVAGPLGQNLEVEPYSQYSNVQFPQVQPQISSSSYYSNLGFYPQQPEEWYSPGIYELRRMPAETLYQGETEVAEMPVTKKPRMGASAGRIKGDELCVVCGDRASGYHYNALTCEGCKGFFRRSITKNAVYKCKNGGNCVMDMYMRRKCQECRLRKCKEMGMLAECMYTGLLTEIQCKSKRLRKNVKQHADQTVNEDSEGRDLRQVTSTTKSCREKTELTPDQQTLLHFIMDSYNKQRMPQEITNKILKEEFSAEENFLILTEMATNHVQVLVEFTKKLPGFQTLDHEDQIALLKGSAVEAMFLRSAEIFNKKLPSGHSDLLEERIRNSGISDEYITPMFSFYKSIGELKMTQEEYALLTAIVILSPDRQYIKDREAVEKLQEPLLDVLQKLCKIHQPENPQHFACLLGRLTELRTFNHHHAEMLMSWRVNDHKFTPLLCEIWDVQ
Sequence of FXR:RXRa (P19793 whole entry, chain 2 of 2): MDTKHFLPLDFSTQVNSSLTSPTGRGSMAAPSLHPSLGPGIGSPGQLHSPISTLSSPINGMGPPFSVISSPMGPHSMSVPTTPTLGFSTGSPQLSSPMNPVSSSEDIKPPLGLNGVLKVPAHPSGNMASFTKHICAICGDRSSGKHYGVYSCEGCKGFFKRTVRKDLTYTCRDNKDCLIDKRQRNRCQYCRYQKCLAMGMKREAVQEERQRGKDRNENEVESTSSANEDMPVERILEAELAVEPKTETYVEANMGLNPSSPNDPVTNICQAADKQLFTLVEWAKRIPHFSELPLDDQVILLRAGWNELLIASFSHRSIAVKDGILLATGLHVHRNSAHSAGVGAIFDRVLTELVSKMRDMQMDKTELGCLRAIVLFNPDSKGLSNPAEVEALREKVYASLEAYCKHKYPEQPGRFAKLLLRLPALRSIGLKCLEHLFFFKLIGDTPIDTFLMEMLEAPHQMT

The target in the data set is FXR:RXRa (Homo sapiens, UniProt Q96RI1;P19793 full;full). Put plainly: no ligand; PBM; 270 nM : 90 nM RXRa; PBS pH 7.4, 2% milk, 0.02% Triton X-100, 1 mM DTT, BSA, 0.4 mg/ml salmon testes DNA. The note with it: tags: His kept;His cleaved; copies: 1;1; label: surface-attached array probe. Summed up:
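Random background probes are the reference for binding z-scores. These scores derive from regression-normalized fluorescence on custom Agilent 4×180K protein-binding microarrays incubated 1 h with ligand-free nuclear receptor dimers. Binding was detected with antibodies against each partner (one per run).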
Turning to B1, the binding signal was 3.73 PBM z-score against 500 random probes.
On to B2, for which the binding signal was 3.52 PBM z-score against 500 random probes.
In the case of B3, the binding signal is 3.93 PBM z-score against 500 random probes.
With B4, the binding signal was 3.58 PBM z-score against 500 random probes.
For B5 the value was 3.29 PBM z-score against 500 random probes; for B6, 3.48 PBM z-score against 500 random probes.
The figure for B7 is 3.76 PBM z-score against 500 random probes; for B8 it is 3.34 PBM z-score against 500 random probes; for B9 it is 3.87 PBM z-score against 500 random probes.
Take B10: the binding signal is 3.39 PBM z-score against 500 random probes.
For the molecule B11, the binding signal is 3.31 PBM z-score against 500 random probes.
As for B12, the binding signal is 0.49 PBM z-score against 500 random probes.
Turning to B13, the binding signal is 3.71 PBM z-score against 500 random probes.
Regarding B14, the binding signal is 3 PBM z-score against 500 random probes.
With B15, the binding signal was 3.26 PBM z-score against 500 random probes.
In the case of B16, the binding signal was 3.64 PBM z-score against 500 random probes.
In the case of B17, the binding signal is 3.09 PBM z-score against 500 random probes.
For the molecule B18, the binding signal was 3.61 PBM z-score against 500 random probes.
Turning to B19, the binding signal was 3.18 PBM z-score against 500 random probes.
Take B20: the binding signal was 3.03 PBM z-score against 500 random probes.
Take B21: the binding signal was 3.81 PBM z-score against 500 random probes.
As for B22, the binding signal was 3.55 PBM z-score against 500 random probes.
The figure for B23 is 3.23 PBM z-score against 500 random probes.
Regarding B24, the binding signal was 3.84 PBM z-score against 500 random probes.
For B25, the binding signal was 3.96 PBM z-score against 500 random probes.
For B26, the binding signal was 3.45 PBM z-score against 500 random probes.
Take B27: the binding signal is 3.07 PBM z-score against 500 random probes.
For B28 the value was 3.15 PBM z-score against 500 random probes; for B29, 3.9 PBM z-score against 500 random probes.
Regarding B30, the binding signal is 3.42 PBM z-score against 500 random probes.
